According to patent US20250134019A1, “TRIKETONE DIOXYGENASE VARIANTS FOR HERBICIDE TOLERANCE” (Monsanto Technology LLC, priority 2022, published 2025):

Assays:
[1] = Specific activity of purified TDO proteins, second hydroxylation of mesotrione; assay type: biochemical; settings: purified His6-tagged protein from E. coli, FIG. 8
Excerpt: Activity was expressed as nmol/min/mg protein and was the mean of three separate assays on the same enzyme sample (technical reps).
To test the hypothesis, the four amino acids of sorghum TDO corresponding to amino acid positions 230, 301, 332, and 335 in rice TDO were replaced with those of rice TDO. The corn, rice, sorghum, and the modified sorghum TDO genes were cloned into a pET28 vector for E. coli expression with His6 tag in the N-terminus. Subsequently, the proteins were expressed and purified by affinity chromatography. BL21-CodonPlus (DE3)-RIPL E. coli cells (Stratagene) were used for expression. Cells transformed with expression vector were grown in autoinduction media (AIM) supplemented with 100 μg mL-1 kanamycin and 34 μg mL-1 chloramphenicol.
TDO proteins used in this study were expressed in AIM cells using an auto-induction system as described by Studier (2014). Briefly, the recombinant cultures were grown at 37° C. for 3 hours and then 20° C. for one or two days. Cells were harvested by centrifugation and frozen at −80° C. The pellet was resuspended in lysis buffer (Bper and Yper [Pierce] with ratio 3 to 1, 25 mM Tris-HCl, 300 mM NaCl, 10 mM imidazole, pH 8.0). 150 mM ferric ammonium citrate (1000X) was added to the lysate to a final concentration of 150 µM and incubated on ice for 20 minutes. The lysate was centrifuged to clarify the supernatant. Clear supernatant was loaded onto a 5 mL Ni column connected to AKTA Express (GE Healthcare). […] Protein concentrations were determined spectrophotometrically based on their calculated molar absorption extinction coefficients at 280 nm.
TDO activity was measured by the second hydroxylation of mesotrione. For routine activity measurements of TDO and determining the kinetic properties of the second hydroxylation, the continuous change in A330, which is specific to the second hydroxylation and subsequent non-enzymatic water removal (i.e. the conversion of hydroxy-mesotrione to oxy-mesotrione), was monitored. […] The reaction proceeded until the maximum A330 was obtained (usually 20-120 minutes depending upon the concentration of mesotrione) and the linear portion of the curve was determined by visual inspection. […]
For the activity calculation, aliquots of the reaction were removed at various time points during the reaction and heated at 95° C. to halt the reaction. The reaction mixtures were analyzed by HPLC and mass spectrophotometry. By product conversation followed by peak integration on HPLC, a linear plot was obtained and the extinction co-efficient delta between the substrate (mesotrione) and the second product (oxy-mesotrione) was obtained according to the equation ΔA330=(εp-εs)*bΔp where ΔA330 is the change of absorbance at 330 nm and b is the light path.

transgenic cotton plants = assay: Mesotrione treatment of cotton plants expressing TDO variants, crop injury; assay type: in vivo; settings: Under 80° F., R2 cotton sprayed at V3
Protocol: Cotton is a crop of interest that is often exposed to high temperature growing conditions and thus, selected TDO variants were tested in cotton. Three TDO variants, D08, TDO_6, and TDO_8 were transformed into cotton (along with the Os.TDO control) using similar expression elements in single-cassette vectors or as part of multi-cassette vectors. R2 transgenic cotton plants were then screened for tolerance to mesotrione. Sixteen plants from two events each per construct were sprayed with two rates (2X and 8X) of mesotrione at V3 stage under normal (80° F.) and hot (100° F.) growing conditions. In addition, the effect of heat treatment on TDO accumulation in cotton plants were measured by ELISA. Cotton plants were planted and grown under normal greenhouse conditions (80° F. day/70° F. night) until V3 growth stage. Half of the plants were then moved to a higher temperature growth chamber (100° F. day/82° F. night) for the heat treatment, whereas the remaining half of the plants stayed in the same greenhouse (80° F. day/70° F. night). At day 3 after the plants were placed under different temperature conditions, leaf samples were collected for TDO protein measurement. The plants in 100° F. growth chamber and in 80° F. greenhouse were both sprayed with 2X mesotrione (210 g a.i./ha). Leaf samples were collected again 7 days after mesotrione treatment (DAT: Days After Treatment) for protein assay. Table 5 compares protein levels of the TDO variants in transgenic cotton plants grown under the two tested conditions. The protein levels for the TDO variants were measured at three time points for plants: 1) just before entering the high temperature treatment, 2) three days following placement into control (normal growth temperature) or high temperature (100° F.), and 3) 7 days after a 2X mesotrione spray.

B1: Os.TDO: TDO from Oryza sativa (HIS1), SEQ ID NO:2, polynucleotide codon optimized for dicot expression (protein, listed as Oryza sativa)
chain: MADESWRAPAIVQELAAAGVEEPPSRYLLREKDRSDVKLVAAELPEPLPVVDLSRLDGAEEATKLRVALQNWGFFLLTNHGVEASLMDSVMNLSREFFNQPIERKQKFSNLIDGKNFQIQGYGTDRVVTQDQILDWSDRLHLRVEPKEEQDLAFWPDHPESFRDVLNKYASGTKRIRDDIIQAMAKLLELDEDYFLDRLNEAPAFARFNYYPPCPRPDLVFGIRPHSDGTLLTILLVDKDVSGLQVQRDGKWSNVEATPHTLLINLGDTMEVMCNGIFRSPVHRVVTNAEKERISLAMLYSVNDEKDIEPAAGLLDENRPARYRKVSVEEFRAGIFGKFSRGERYIDSLRI
For B1, the “specific activity of the second hydroxylation” value [1] was “highest activity”, the “Crop Injury (%), 210 g/ha (2X) Mesotrione” value (transgenic cotton plants) was 0% and the “Crop Injury (%), 840 g/ha (8X) Mesotrione” value (transgenic cotton plants) was 0%.
